Assays:
[1] = target: T1, CLL-1 on cells (HEK293 cells stably transfected with CLL-1; HL-60 and other AML cells) (human, UniProt Q5QGZ9 1-265); experiment: cell-based or functional assay
T1 sequence: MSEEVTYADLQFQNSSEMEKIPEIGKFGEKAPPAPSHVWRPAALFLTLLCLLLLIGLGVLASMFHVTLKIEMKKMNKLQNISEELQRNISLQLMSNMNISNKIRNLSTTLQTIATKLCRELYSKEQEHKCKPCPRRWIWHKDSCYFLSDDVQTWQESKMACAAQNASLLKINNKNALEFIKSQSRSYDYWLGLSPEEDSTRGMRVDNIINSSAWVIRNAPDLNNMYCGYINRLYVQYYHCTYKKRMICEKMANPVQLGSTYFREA

[2] = target: T2, CLL-1-ECD-V5His recombinant protein (human, UniProt Q5QGZ9 67-265); experiment: SPR (BIAcore), mAb captured via anti-mouse mAb, antigen in solution, 25° C.
T2 construct: also called recombinant CLL-1 protein; CLL-1 V5-6His protein; not shown: C-terminal V5-His tag
T2 sequence: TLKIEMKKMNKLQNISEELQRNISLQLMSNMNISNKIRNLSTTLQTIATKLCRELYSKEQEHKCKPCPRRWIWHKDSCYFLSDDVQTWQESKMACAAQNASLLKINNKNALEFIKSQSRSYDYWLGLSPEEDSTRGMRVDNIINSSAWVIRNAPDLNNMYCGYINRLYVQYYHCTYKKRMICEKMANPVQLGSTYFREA
Method: (§1) Kinetic rate constants (kₐ and kd) were determined using surface plasmon resonance and affinities (KD) were then calculated from the rate constants (kd/kₐ). Surface plasmon resonance was carried out on a BlAcore system (Biacore International AB, Uppsala, Sweden). Chimeric monoclonal antibodies (21.16 or 1075.7) were diluted to 2 μg/ml and then captured on the biosensor surface using an anti-mouse mAb. Antigen was diluted to a starting concentration of 46 nM and tested for binding to the mAb samples using a 3-fold dilution series. Each of 5 concentrations was tested twice except the highest concentration which was tested 5 times in total, two times with a short dissociation of 300 seconds followed by three times with a dissociation of 60 minutes. The data sets from the long dissociation experiments were globally fit with the shorter association experiments to determine binding constants for the interactions. The analysis was carried out in HBS, pH 7.4 buffer at 25° C. (Canziani et al, Anal. Biochem. 352:301-307 (2004)).

[3] = target: T2, CLL-1-ECD-V5His recombinant protein; experiment: SPR (BIAcore), mAb captured via anti-mouse mAb, antigen in solution, 25° C.; KD = kd/ka
Method: as §1

B1: chimeric anti-CLL-1 monoclonal antibody 21.16 (antibody, human IgG1, V domains shown)
VH: QVQLQQPGAELVKPGTSVKLSCKASGYTFTRYWMHWVKQRPGQGLEWIGMIHPSSGSTSYNEKVKNKATLTVDRSSTTAYMQLSSLTSEDSAVYYCARDGDYYYGTGDYWGQGTTLTVSS
VL: QIVLSQSPAILSASPGEKVTMTCRASSSINYMHWYQQKPGSSPKPWIFATSNLASGVPSRFSGSGSGTSYSLTISRVEAEDAATYYCQQWRSDRALTFGAGTKLELIR
notes: No cleavage site is stated; also called mAb 21.16; VL1VH1
EC50 of complement-dependent cytotoxicity (CDC) on OCI-AML5 cells [1]: ~0.0071 µg/mL
EC50 of ex vivo cytotoxicity on patient AML sample 'M1' [1]: 0.284 µg/mL
EC50 of ex vivo cytotoxicity on patient AML sample 'M5a' [1]: 0.146 µg/mL
complement-dependent cytotoxicity (CDC), EC50, HEK293 cells expressing CLL-1 [1]: ~0.088 µg/mL
kon [2]: 554000 M⁻¹ s⁻¹

B2: chimeric anti-CLL-1 monoclonal antibody 1075.7 (antibody, human IgG1, V domains shown)
VH: DIQLQESGPGLVKPSQSLSLTCSVTGYSITSAYYWNWIRQFPGNKLEWMGYISYDGRNNYNPSLKNRISITRDTSKNQFFLKLNSVTTEDTATYYCAKEGDYDVGNYYAMDYWGQGTSVTVSS
VL: ENVLTQSPAIMSASPGEKVTMTCRASSNVISSYVHWYQQRSGASPKLWIYSTSNLASGVPARFSGSGSGTSYSLTISSVEAEDAATYYCQQYSGYPLTFGAGTKLELKR
notes: No cleavage site is stated; also called mAb 1075.7; clone #1075.7
koff [2]: 0.00015 s⁻¹
kon [2]: 417000 M⁻¹ s⁻¹
Kd [3]: 0.36 nM

From patent publication US20100285037A1 (ARCA BIOPHARMA, published 2010)
